Assay results taken from PMC9568556.

Target: Bacillus pseudofirmus Mrp antiporter complex (hetero-heptamer MrpA-MrpG, one protomer) (Bacillus pseudofirmus) (UniProt Q9RGZ5)
Assay: cryo-EM structure; purified Mrp dimer fractions in 20 mM Tris-HCl pH 8.0, 150 mM NaCl, 0.05% LMNG, 1-2 mg/ml; dimer map 2.96 Å, symmetry-expanded protomer map 2.2 Å

Substance: Bacillus pseudofirmus Mrp antiporter complex (hetero-heptamer MrpA-MrpG, one protomer) (from UniProt Q9RGZ5 1-805; Q9RGZ4 1-144; Q9RGZ3 1-112; Q9RGZ2 1-493; Q9RGZ1 1-158; Q9RGZ0 1-91; Q9RGY9 1-119)
- stoichiometry N: 2
